The DeepSol protein solubility set

experiment: soluble on expression in E. coli; label from the status in PepcDB or PDB records

Row | Sequence | soluble on expression in E. coli
1 | MKLLKDLLVDRKEFEDWKNNLTWARDGTLYLTTFPDISIGQPKYAKDINCNSKNLFHVKEFPLEFENKLDFELAQQNGLLNSQPVCYPRVCKPSPIDDWMAVLSNNGNVSVFKDNKMLTNLDSKGNLSSRTYHCFEWNPIESSIVVGNEDGELQFFSIRKNSENTPEFYFESSIRLSDAGSKDWVTHIVWYEDVLVAALSNNSVFSMTVSASSHQPVSRMIQNASRRKITDLKIVDYKVVLTCPGYVHKIDLKNYSISSLKTGSLENFHIIPLNHEKESTILLMSNKTSYKVLLEDELHVTADNIIAPYLEKKFKKWSTIWNEFNNYETTLVIHGISLSPDGYSIAIVYDMERVAFKYKIASEQSFNIMFAPLYHTWTISERAVGLAWYQTYQIYNQSLPKLPENFSMNKKLLNGNYPISLDFQSYLNALMKSEEMRIIMFLNMTIDKPSILSFLEALYEYAINKKSELTNSFDLACVLSIAAILKREAPIYNGTLLMKNSFLEETFNLESFTADPETVTSTTNNTWKRCGVTLLPILTTHVKICPVSKQRVIDIKRDDLNDYGWFTRGLLERFNEISVYCGTTLEVM | soluble
2 | MKFLHTADWHIGKKLHGFDLLAEQREAFEQILAIAKEEQVDAVVIAGDLYDRSVPAVEAVEIFNEMMIQMNLKEHFPVLAISGNHDSSTRLETGGPWFNQTQFHLNTRLEQAFQPIEIDNTQFYLLPYFEPIAARLYFEDETIRTIQAAMEKVVAKMQESFLPNKKQVLVSHFFVAGSEKTDSETKLTVGGLDVVPTALLEPFDYVALGHLHGKNALQAPNARYSGSPVKFSLSEMTQEKGVWLVETEAEVHFQFRALKPLRDIQQLTGSFQQLTDPAFYQEVNRENYLHVQLTDRAIIPNMMNQLRKIYPKIIGLERLNGRETSSGNQKKVVQIEQRSPEEHLHDFFNDVTGEALTEQQAQWVQEELSTLNQLERGK | not soluble
3 | MGSDKIHHHHHHMEQSMRKKNNNQINIVLNHRKKISLPAAENKTVISSETTTKHEMLQRIEEEMGKLVGMDDIKKIIKEIYAWIYVNKKRQEIGLKSEKQVLHMLFKGNPGTGKTTVARMIGKLLFEMNILSKGHLVEAERADLVGEYIGHTAQKTRDLIKKAMGGILFIDEAYSLARGGEKDFGKEAIDTLVKHMEDKQHGFVLILAGYSREMNHFLSLNPGLQSRFPFIIEFADYSVNQLLEIGKRMYEEREYQLSKEAEWKFRDHLHAVKYSSQITSFSNGRYVRNIVEKSIRTQAMRLLQEDAYDKYDLIGISSSDLMLEEETHST | not soluble
4 | MGSDKIHHHHHHMLHLNLLQVFISVAENSSFTLAGSEMHRTQSAISMKIKRLEEILGVPVFERSGKSIELTKEGAIFLTHSRRILQLVDEAMSAVGAVRKSNVVRLGCVEDYAVRTIPKILVDFWVEHPDVHIEMGTGDSASLLDRLGDDFDVVLAEHPLNSGEGEVVCTDSLVWGASANHSPHLQEPIPVAFRSQGALERQWACSALNAAGRPWRLACLSAGIGTLQTAVDAGLAVGVFKASTLAGALNRLTPADNFPQLPDVEMALHVMNDGFSQPSIMQLVKKLRESLQRPQLAAAHE | not soluble
5 | MGHHHHHHSHMYKGRTVLQKVVGHPSCTFLYGPPDPAVRATDPQQVAFPSPAELPDQKQLRYTEELLRHVAPGLHLELRGPQLWARRMGKCKVYWEVGGPPGSASPSTPACLLPRNCDTPIFDFRVFFQELVEFRARQRRGSPRYTIYLGFGQDLSAGRPKEKSLVLVKLEPWLCRVHLEGTQREGVSSLDSSSLSLCLSSANSLYDDIECFLMELEQPA | not soluble
6 | MGSDKIHHHHHHMPHLFYGTAQNGEVIFDEREAHHMRVVRLKEGDVIEATDGNGFSYTCILKSLKKKTAAAKIVKVEEKEKEPTEKLSVVVPIGRWERTRFLIEKCVELGVDEIFFHKFERSQHEISLDKAKIVVREAAKQCKRYLFPKVSFLEKLEFSGNVITLDLDASQNLLDANLEGSITVVVGPEGGFSEKERELLRSSTTIVSLGKKILRFETAAILTVGYIALKKQKI | soluble
7 | MGSDKIHHHHHHMSEKNQQSADLMARQYFLHLGAHRTGSSSFQLCLHENRAALANAGYGVAFPARDGIRAGQLALRLPQPRHDAEAETRMAETARQHLTQDIAPAPDQKVLLSEENILGSMSHFQQALFYPASAKRLRALRQAMEGPAAAVLLVVRDYGPFFRSCIRKRMEETIVTDFEGAVSAYLAMDRGWLEVLREVRDILEPAKLIVARHEDRPKRVDLLRELAPDLAQVALMQPSTSLNISATDRALSALQARYATGEKLSRKAWRATLAEWRDDATPMGLTEFTPRELRAFSMRYERDLSDIAKEPGLTLI | not soluble
8 | MNNQSQVKVGPPLWLLAELTYDCPLHCPYCSNPTELGDTKDELNTEQWLDVLTQARAMGAVQLGFSGGEPLLRKDLEQMVKHSRELGFYTNLITSGIGLTEKRIAKLKVAGLDHIQISFQGADPEMNDIIAGRGNAFEQKFKMAQSVKAQGYPMVLNFVISKQNISQVEDIMRLSCQLNADYVELATAQYYGWAYDNRDHLLPSQQQLIDAEKIVNEFRDKQQGKGPQFIFVTPDYFEVRPKACMNGWGSTFLTIAPDGSALPCHSAKMLPLKFPNVKDKSISDIWQQDFSFNRFRGDSWMPQPCQSCDEKEKDFGGCRCQAFMMTGDMDKTDPVCSKSPDHHLIQEAIERAKHPKNPLLERVNKRSIKDADIVQIKL | not soluble
9 | MGSDKIHHHHHHMTHPALIDELQALADPGKVLTDAGSLETYGKDWTRQFTPAPLAIVFPKTTEQVQAIVRWANERLVALVPSGGRTGLSAAAVAANGEVVVSFDYMNQVLELNLTDRTAVCQPGVITRQLQALAEDNGLYYPVDFASSGSSQIGGNIGTNAGGIKVIRYGMTRNWVAGLKVVTGKGDLLELNKDLIKNATGYDLRQLFIGAEGTLGFVVEATMRLDRAPKNLTAMVLGTTDFNSIMPVLHAFHGKLDLTAFEFFSDKSFARVMARGDVPSPFDTPCPFYVLLEFEATTEDLADQALATFEHCVEQGWVLDGVMSQSEQQLRNLWKLREYISETISHFTPYKNDISVSVSKVPEFLAEIDAIVAEYYPDFEVLWYGHIGDGNLHLNILKPENLDKDEFFVKCARVNKWVFETVEKYNGSISAEHGVGMTKRDYLTYSRSPVEIEYMKALKAVFDPNGIMNPGKIFAV | not soluble
10 | MRIQIRYDDIDYLGHVNNARFLAYFEIGRLSYMKRFFNTRSAKDISMVIARAELDFERSVMFEDDIFVRTWISRVGNRSFDFSYTIEDDGGTVFCRGRTVNVFVEDGKPVSVPDFVKDLVISDVKT | not soluble
11 | MRQKGHRHGRTVSPCAGCKLLRRKCVKDSCVFAPYFPAKEPYKFAIVHKIFGASNVNKMLQELSENHRSDAVDSMVYEANARIQDPVYGCVGTISSLHRQLETLQTQLAFAQAELIHIRTLHRIHTKPPPYTASTVTFPSNKDFYSDIDMAVAYTDDAGDFLWSC | soluble
12 | MGSDKIHHHHHHMRMDHQLAERWIAPYSHVLDLGCGNGELLAHLQQNRGVTGYGLEIDEDKINEAIANGLSIVEQDLNDGLARFADNSFDTVVMARALQAVKSPDVLLLDMLRVAREAVITFPNFAHWQNRIHLGLKGIMPVSEALPYEWYNTPNIHLCTFKDFEKLCAQHDIHIINRFAVSDSEKGHSSLMTALIRRAPNLLADVAIYRVSKQKPE | not soluble
13 | MGSDKIHHHHHHMKYTIEEIRQMQEGQTFDCKSILIEPKHLATIIVAMANADGGMIAVGISDKTRRIEGVNQDKEHLNDILRTPLDFCVPSVSVTTDYVPCTDAEGRDNRVLLMHIPASPRLHANQADEVFWRVGDKSRKLTFDERLQLMYDKGERYYEDSTAYDATLDDIDMDAVKAYMKRIGYGKSAMEYLQENKGFVTYKGDVPQVSAACILLFGKHPQTFFPRARVRFIKYFGTEEKVGREMNVIKDVTFDGRILEQIQKTVEYLETQVKEHSYLGEDGIFKTDREYPKFVIQEMVVNSVCHRDYSIKGTEIQIKMFDDRLVFETPGKLPGIVRTDNIRHTHFSRNPKIAEFLKAYDYVKEFGEGVDRMCRELSALGVKEPQYNLVAFIMKATVCAKVLEERQGTNHFDQKRPESDQKSDQMRIILELIKSNPNISRTELSEKTGLHDSSVKRRLKTLVDEGLIQRVGPDKGGQWKVIGSL | not soluble
14 | MDHAPERFDATPPAGEPDRPALGVLELTSIARGITVADAALKRAPSLLLMSRPVSSGKHLLMMRGQVAEVEESMIAAREIAGAGSGALLDELELPYAHEQLWRFLDAPVVADAWEEDTESVIIVETATVCAAIDSADAALKTAPVVLRDMRLAIGIAGKAFFTLTGELADVEAAAEVVRERCGARLLELACIARPVDELRGRLFF | not soluble
